In patent US20260176659A1, “IMPROVED METHOD FOR THE PRODUCTION OF NATURAL VANILLIN” (BASE SE, priority 2022, published 2026):
“And” between values parts separate entries of the source, which are not always exact repeats. Identical values can stand only once.

Tests used:
[1] = Bioconversion of eugenol to vanillin: one-pot concurrent cascade EUGO + alkene cleavage oxygenase (5 mM scale); format: biochemical; conditions: for Reaction composition at 24 hours (%) 1a / Reaction composition at 24 hours (%) 2a / Reaction composition at 24 hours (%) 3a / Reaction composition at 24 hours (%) 5a / Conversion of 1a to 3a (%): EUGO fresh CFE 1 mg/mL, IECO 0 mg/mL; for Conversion of 1a to 3a (%): 24 h; for Product distribution after 24 hours 2a (%) / Product distribution after 24 hours 3a (%) / Product distribution after 24 hours 5a (%): Table 8b, EUGO FD-CFE 1 mg/mL, CO-0X FD-CFE 1 mg/mL, catalase 10 mg/mL, eugenol 5 mM
Experimental: Stock solutions of eugenol (100 mM) were prepared in ethanol or DMSO and stored at −20° C. Unless otherwise stated, the reaction mixtures (0.5 mL) were set up in 1.5 mL glass vials as follows: freeze-dried cell free extract of IECO/CO-XX (3 mg) and EUGO (0.5 mg) were dissolved in the reaction buffer (50 mM glycine-NaOH pH 9.0) containing sodium ascorbate (1 mM), FeSO4 (1 mM) and bovine liver catalase (5 mg, Sigma Aldrich C40). The reaction was initiated by the addition of 0.025 mL eugenol stock (final concentration 5 mM), then incubated at 30° C. and 120 rpm overnight (rotary shaker). The final content of cosolvent was 5% v/v. To improve oxygenation, the vials were placed horizontally. At certain time points, samples (0.2 mL) were quenched with methanol (0.4 mL) and the mixture was centrifuged at 20238 g for 5-10 mins. Finally, the supernatant was analysed by HPLC.
EUGO (0.5 mg CFE), CO-25 (3 mg CFE) and catalase (5 mg, Sigma product #C40) were dissolved in 50 mM Glycine-NaOH pH 9.0 or Tris-HCl pH 8.0 together with FeSO4 (1 mM) and sodium ascorbate (1 mM). Note that the buffer content of the freeze-dried biocatalyst prep was not considered for the assembling of the reaction. The reaction was started by the addition of 5 mM eugenol from a 20× stock in ethanol. The reactions—performed in glass vials—were then incubated at 30° C. and 120 rpm (25 mm shaker). Finally, samples of the reaction mixture were diluted with MeOH and analyzed by HPLC at 280 and 340 nm.

[2] = Biotransformation of eugenol to coniferyl alcohol by EUGO (50 mM scale); format: biochemical
Experimental: The biotransformation (total volume 3 mL) was performed in a 10 mL round bottom flask with a stir bar. Eugenol (0.023 mL, 25 mg, 0.15 mmol, 1.0 equiv., 50 mM final conc.) was dissolved in DMSO or ethanol (0.150 mL). Then, the solution was diluted with Tis-HCl buffer (50 mM, pH 8.0, 2.827 mL). To obtain a homogeneous dispersion of the eugenol droplets, the mixture was stirred for about 15-20 mins. Then bovine liver catalase (Sigma P #C40, 30 mg, 2300 kU) and EUGO (30 mg of freeze-dried cell free extract, Tris base salt content was neglected) were added consecutively (note: EUGO was added after the catalase was completely dissolved). The reaction was incubated at room temperature and gentle stirring (40 rpm) for 17-24 hours. At certain time points, samples (0.1 mL) were diluted with methanol (0.8 mL, 8 vol equiv.) for stopping the reaction. The samples were centrifuged at 20238×g for 10 mins and the supernatant was analyzed by HPLC. When the reaction was completed, the products were extracted with ethyl acetate (3×1.5 mL EtOAc, in 2 mL microcentrifuge tubes). The aqueous and organic phases were separated by centrifugation (20238×g for ˜3 mins). Then, the organic phase was dried with NaSO4 and concentrated under reduced pressure (40° C., 200 mbar), but not dried completely to avoid polymerization. The concentrate was directly purified by silica gel chromatography (10 mL column volume) using a mixture of 1:1 etylacetate:cyclohexane as eluent. Fractions containing coniferyl alcohol (according to TLC) were combined and concentrated under reduced pressure (40° C., 200 mbar). Final drying under high vacuum (1.5 mbar) and inert gas flow yielded the title compound as yellowish solid (24.2 mg, 0.134 mmol, 90% yield). Notes: The obtained product was stored at −20° C. under inert gas atmosphere. Evaporation of a product solution in chloroform induced polymerization, therefore, no crude NMR was taken before product purification.

[3] = EUGO FD-CFE 10 mg/mL, eugenol 50 mM, catalase 10 mg/mL, pH 8.0, 5% v/v DMSO, room temperature, 17 hours
[4] = EUGO FD-CFE 10 mg/mL, eugenol 50 mM, catalase 10 mg/mL, pH 8.0, 5% v/v DMSO, room temperature, 24 hours

B1: EUGO: eugenol oxidase from Rhodococcus jostii (Uniprot: Q0SBK1), SEQ ID NO: 2, used as cell free extract (protein)
chain: MTRTLPPGVSDERFDAALQRFRDVVGDKWVLSTADELEAFRDPYPVGAAEANLPSAVVSPESTEQVQDIVRIANEYGIPLSPVSTGKNNGYGGAAPRLSGSVIVKTGERMNRILEVNEKYGYALLEPGVTYFDLYEYLQSHDSGLMLDCPDLGWGSVVGNTLDRGVGYTPYGDHFMWQTGLEVVLPQGEVMRTGMGALPGSDAWQLFPYGFGPFPDGMFTQSNLGIVTKMGIALMQRPPASQSFLITFDKEEDLEQIVDIMLPLRINMAPLQNVPVLRNIFMDAAAVSKRTEWFDGDGPMPAEAIERMKKDLDLGFWNFYGTLYGPPPLIEMYYGMIKEAFGKIPGARFFTHEERDDRGGHVLQDRHKINNGIPSLDELQLLDWVPNGGHIGFSPVSAPDGREAMKQFEMVRNRANEYNKDYAAQFIIGLREMHHVCLFIYDTAIPEAREEILQMTKVLVREAAEAGYGEYRTHNALMDDVMATFNWGDGALLKFHEKIKDALDPNGIIAPGKSGIWSQRFRGQNL
modifications: cell free extract; Rhodococcus Jostii
Reaction composition at 24 hours (%) 1a ([1]; cosolvent DMSO 5% v/v, 5 mM 1a): 1≤ % | Reaction composition at 24 hours (%) 2a ([1]; cosolvent DMSO 5% v/v, 5 mM 1a): 96% | Reaction composition at 24 hours (%) 3a ([1]; cosolvent DMSO 5% v/v, 5 mM 1a): 1≤ % | Reaction composition at 24 hours (%) 5a ([1]; cosolvent DMSO 5% v/v, 5 mM 1a): 2% | Conversion of 1a to 3a (%) ([1]; cosolvent DMSO 5% v/v, 5 mM 1a): 1≤ % | Reaction composition at 24 hours (%) 1a ([1]; cosolvent EtOH 5% v/v, 5 mM 1a): 1≤ % | Reaction composition at 24 hours (%) 2a ([1]; cosolvent EtOH 5% v/v, 5 mM 1a): 97% | Reaction composition at 24 hours (%) 3a ([1]; cosolvent EtOH 5% v/v, 5 mM 1a): 1≤ % | Reaction composition at 24 hours (%) 5a ([1]; cosolvent EtOH 5% v/v, 5 mM 1a): 2% | Conversion of 1a to 3a (%) ([1]; cosolvent EtOH 5% v/v, 5 mM 1a): 1≤ % | time in which the oxidation step (1a to 2a) occurs ([1]; one pot concurrent cascade EUGO-IECO, 5 mM 1a, time studies): within the first two hours | 2a [2, 3]: 48 mM and 41 mM | Reaction composition (%) 2a [2, 3]: 95% and 76% | Reaction composition (%) 5a [2, 3]: 4% and 3% | 2a [2, 4]: 50 mM | Reaction composition (%) 1a [2, 4]: 0% | Reaction composition (%) 2a [2, 4]: 95% | Reaction composition (%) 5a [2, 4]: 5% | time within which the substrate was consumed ([2]; EUGO cell free extract, 50 mM 1a): ≤ 24 h

B2: CO-23: alkene cleavage oxygenase, Pseudomonas viciae, SEQ ID NO: 130 (protein, listed as Pseudomonas viciae)
chain: MTIPFPQTPEFSGALYTPSRVEAEVFDLEIEGVLPASIGGTFYQVAPDPQYPPMLGNDIFFNGDGVVSRFNFANGKVSMRRRYVKTDRLLAQRREGRSLNGVYRNVYTNDRLAAKNNTTANTTVIPHNGVLLALKEDALPWAMDLDTLETLGEWTFDGQIKSATFTAHPKLDPVTGNLLACSYEAKGDGTPDLAYFEISPDGKLLHEIWFQAPYAAMVHDFAVTERYVVFPLIPLTVDVERMKNGGPHFQWQPDLPQLFAVVPRNGNAQDVRWFKGPKDGFQGHTLNAFDEDGKVYVDMPVTGGNIFYFFPQADGYVPPPETLAASLMRWTFDLNSALDEVEPQPLTDYPCEFPRCDDRYIGRKYQHGFLLAFDPERPYNPANGPIPFQFFNLLVHLNLKTGITDAWFPGDSGCFQEPIFIPRSADAEEADGYVVALLNLIAEGRSELVVLDSRDMASGPIARIRIPFRMRMSLHGCWTADPN
Product distribution after 24 hours 2a (%) ([1]; pH 8.0): 69.0% | Product distribution after 24 hours 3a (%) ([1]; pH 8.0): 13.7% | Product distribution after 24 hours 5a (%) ([1]; pH 8.0): 17.3% | Product distribution after 24 hours 2a (%) ([1]; pH 9.0): 67.0% | Product distribution after 24 hours 3a (%) ([1]; pH 9.0): 13.6% | Product distribution after 24 hours 5a (%) ([1]; pH 9.0): 19.4%

B3: CO-22: alkene cleavage oxygenase, Pseudomonas kilonensis, SEQ ID NO: 128 (protein, listed as Pseudomonas kilonensis)
chain: MTIPFPQTSEFSGALYTPSRVEAELFDLEVEGTLPAEIRGAFYQVAPDPQYPPMLGTDIFFNGDGMVTGFYFANGKVSMRRRYVKTDRLMAQRREGRSLNGVYRNLYTNDPLAAKNNTTANTTVIPHNGVLLALKEDALPWAMDLETLETLGEWTFDGQIKAATFTAHPKRDPATGNLLAFSYEAKGDGTPDIAYFEISPDGKLLHEIWFQAPYAAMVHDFAVTERYVVFPLIPLTVDVERMKNGGPHFQWQPDLPQLFAVVPRNGNAQDVRWFKGPKDSFQGHTLNAFDEDGKVYVDMPVTGGNVFYFFPQADGYVPPPETLAASLMRWTFDLSSPQDEVEPQPLTEYPCEFPRCDDRYIGRKYQHGFLLAFDPERPYNPANGPIPFQFFNLLVHLNLKTGSTDAWFPGDSGCFQEPIFIPRSADAEEADGYVVALLNLIAEGRSELVVLDSRDMAGGPIARIRIPFRMRMSLHGCWAPSD
Product distribution after 24 hours 2a (%) ([1]; pH 8.0): 69.4% | Product distribution after 24 hours 3a (%) ([1]; pH 8.0): 15.0% | Product distribution after 24 hours 5a (%) ([1]; pH 8.0): 15.6% | Product distribution after 24 hours 2a (%) ([1]; pH 9.0): 63.2% | Product distribution after 24 hours 3a (%) ([1]; pH 9.0): 16.8% | Product distribution after 24 hours 5a (%) ([1]; pH 9.0): 20.0%

B4: CO-24: alkene cleavage oxygenase, Pseudomonas ogarae, SEQ ID NO: 132 (protein, listed as Pseudomonas ogarae)
chain: MSIPFPQTPEFSGVLYTPSRVEAEVFDLEIEGILPASICGTFYQVAPDPQYPPMLGNDIFFNGDGVVSRFNFANGKVSMRRRYVKTDRLLAQRREGRSLNGVYRNVYTNDPLAAKNNTTANTTVIPHNGVLLALKEDALPWALDLETLETLGEWTFDGQIKAATFTAHPKLDPVTGNLLACSYEAKGDGTPDLAYFEISPDGKLLHEIWFQAPYAAMVHDFAVTERYVVFPLIPLTVDVERMKNGGPHFQWQPDLPQLFAIVPRNGCGQDVRWFKGPKDGFQGHTLNAFDEDGKVYVDMPVTGGNIFYFFPQADGYVPPPETLAASLMRWTFDLNGAQEDVQPQPLTEYPCEFPRCDDRYIGRKYQHGFLLAFDPERPYNPANGPIPFQFFNLLAHLDLQTGRTDAWFPGDSGCFQEPIFIPRSADAEEADGYVVALLNLIAEGRSELVVLDTRDMASGPIARIRIPFRMRMSLHGCWAPND
Product distribution after 24 hours 2a (%) ([1]; pH 8.0): 78.5% | Product distribution after 24 hours 3a (%) ([1]; pH 8.0): 6.1% | Product distribution after 24 hours 5a (%) ([1]; pH 8.0): 15.4% | Product distribution after 24 hours 2a (%) ([1]; pH 9.0): 73.9% | Product distribution after 24 hours 3a (%) ([1]; pH 9.0): 5.6% | Product distribution after 24 hours 5a (%) ([1]; pH 9.0): 20.5%
